Measurements reported in the supplement of paper PMC10724198.
± gives the standard deviation of the averaged measurements.

tested on: Saccharomyces cerevisiae; experiment: protein stability index of tFT-peptide fusion (C-terminal peptide) (PSI (0-1 scale)); higher = more stable (slower turnover); conditions: genetic background: wild type; temperature: 30 C
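Further: PSI is a weighted mean of sequencing reads over stability bins, variants kept only with over 10 reads, mCherry proximal and sfGFP distal, peptide attached via GGGS linker.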

Going from QKNKKKKQKKEK to QKPVQGICQEAN, the protein stability index falls from 0.717 ± 0.05 to 0.628 ± 0.035.

First: QKTSPWRQRGRL
Second: QLDPLRPASEFA
The protein stability index of the first is higher: 0.778 ± 0.047 for the first, 0.602 ± 0.043 for the second.

Going from QLILVGYCMLSV to QLLCMSEPFVRE, the protein stability index rises from 0.5612 ± 0.0017 to 0.699 ± 0.057.

QNEKSKQCIKQT and QNKTKDQKQRRQ are within error of each other in protein stability index: 0.6759 ± 0.0019 for the first, 0.697 ± 0.028 for the second.

QNNTRQQRKTPR and QNSDDFLITDTY are within error of each other in protein stability index: 0.683 ± 0.022 for the first, 0.643 ± 0.1 for the second.

Going from QPGGTHDLGGTG to QPGPKTTYLEEA, the protein stability index rises from 0.61 ± 0.012 to 0.686 ± 0.014.

QPPLPTRLNHRQ and QPQRSRLRQQNT are within error of each other in protein stability index: 0.651 ± 0.045 for the first, 0.734 ± 0.081 for the second.

QPRVSTSGHSAR and QPYHSSPSPRTI are within error of each other in protein stability index: 0.722 ± 0.016 for the first, 0.717 ± 0.073 for the second.

QQCVTGKSFYGI and QQLPPARLPRRP are within error of each other in protein stability index: 0.856 ± 0.14 for the first, 0.745 ± 0.012 for the second.

First: QRFVKIRGLEKI
Second: QRGCEAKRGGEG
The protein stability index of the first is higher: 0.693 ± 0.026 for the first, 0.628 ± 0.014 for the second.

QRSQASIPGQEV and QSAPPPLPPRRR are within error of each other in protein stability index: 0.579 ± 0.091 for the first, 0.69 ± 0.03 for the second.

QSARMRRKSNLP and QSLITVETRIGS are within error of each other in protein stability index: 0.674 ± 0.028 for the first, 0.651 ± 0.045 for the second.

First: QSPATIPFASHR
Second: QSPRRQLEGKLE
The protein stability index of the first is higher: 0.731 ± 0.014 for the first, 0.619 ± 0.046 for the second.

QTDHINKTTAKI and QTGQVSRVSPHD are within error of each other in protein stability index: 0.684 ± 0.021 for the first, 0.672 ± 0.031 for the second.

Going from QTHRFLHVGKSL to QTLNTKEKREKE, the protein stability index rises from 0.621 ± 0.043 to 0.727 ± 0.025.

Compared with QTYNKRKGAIRA, QVLFTPLLNVTK is higher in protein stability index: 0.616 ± 0.016 for the first, 0.754 ± 0.05 for the second.

QVTLPHSSLLGW and QVWLEKDPQETA are within error of each other in protein stability index: 0.6749 ± 0.0028 for the first, 0.691 ± 0.016 for the second.

QYFRKRVLKELP and QYGVSIRRDSRP are within error of each other in protein stability index: 0.671 ± 0.074 for the first, 0.642 ± 0.035 for the second.

First: RADAPPPTRPEA
Second: RAGSLRFRVILY
The protein stability index of the first is higher: 0.744 ± 0.011 for the first, 0.635 ± 0.026 for the second.

First: RAHWGEFGYSLF
Second: RAILTVVRGHLE
The protein stability index of the first is higher: 0.716 ± 0.018 for the first, 0.668 ± 0.0086 for the second.

Going from RAITPRHKRLVG to RAKCELVHGLRT, the protein stability index falls from 0.6934 ± 0.0031 to 0.65 ± 0.026.

First: RAKGGFDPKCYS
Second: RAKSTFRVHSHM
The protein stability index of the first is higher: 0.749 ± 0.076 for the first, 0.6645 ± 0.005 for the second.

Going from RAKVEQTGQKTV to RALLSPFYRFYV, the protein stability index falls from 0.707 ± 0.011 to 0.5956 ± 0.003.

Compared with RALNRVWLSRRV, RALSLLSLLLNR is higher in protein stability index: 0.607 ± 0.02 for the first, 0.696 ± 0.022 for the second.

RAMLWGPCYRGI and RAPFLSRACCSR are within error of each other in protein stability index: 0.656 ± 0.021 for the first, 0.648 ± 0.013 for the second.

RAPPPPARPALP and RARAIGVGAGRG are within error of each other in protein stability index: 0.687 ± 0.028 for the first, 0.691 ± 0.019 for the second.

RARPGRACPGAP and RARVGGRQLRRV are within error of each other in protein stability index: 0.755 ± 0.0097 for the first, 0.753 ± 0.15 for the second.

RARVVRRWDTCG and RASTRGIMISKS are within error of each other in protein stability index: 0.697 ± 0.086 for the first, 0.706 ± 0.034 for the second.

RATLGVSGRCWV and RAVHSSPHVSLS are within error of each other in protein stability index: 0.6802 ± 0.001 for the first, 0.681 ± 0.013 for the second.

Compared with RAVKLHIIIFDG, RAVSGSLSFLLR is higher in protein stability index: 0.551 ± 0.025 for the first, 0.721 ± 0.014 for the second.

Compared with RAWELPRLRGRD, RAWHFWVCGWRV is lower in protein stability index: 0.743 ± 0.076 for the first, 0.607 ± 0.041 for the second.

Going from RCAGCFDSAFSW to RCFSLFYIYCPA, the protein stability index falls from 0.746 ± 0.012 to 0.525 ± 0.0065.

Going from RCGVAGVVCGSG to RCKCGDALTVIH, the protein stability index rises from 0.615 ± 0.039 to 0.691 ± 0.016.

Going from RCLGDLLARQTP to RCLRALGLFARS, the protein stability index rises from 0.635 ± 0.012 to 0.719 ± 0.008.

RCLSISTSLCKV and RCPQHCDLSVYV are within error of each other in protein stability index: 0.744 ± 0.052 for the first, 0.681 ± 0.021 for the second.

RCSAPWFSPYPP and RCSLGWKRFDWR are within error of each other in protein stability index: 0.645 ± 0.073 for the first, 0.706 ± 0.061 for the second.

RCTNSLPSYLSH and RDCPVTPGTLFS are within error of each other in protein stability index: 0.675 ± 0.039 for the first, 0.744 ± 0.084 for the second.

RDGGSTDGGKRR and RDNKIKEGKKKK are within error of each other in protein stability index: 0.697 ± 0.024 for the first, 0.682 ± 0.1 for the second.

RDSERTSGAMLS and REGRRSVWGVSW are within error of each other in protein stability index: 0.689 ± 0.031 for the first, 0.685 ± 0.023 for the second.

REHLSERVPSRA and REKLINEKRIRR are within error of each other in protein stability index: 0.749 ± 0.057 for the first, 0.704 ± 0.012 for the second.

RELGAWSFITSV and RESIEGGGAPRD are within error of each other in protein stability index: 0.705 ± 0.014 for the first, 0.747 ± 0.11 for the second.

REVRRNINKRRE and REVYLFSSSCRG are within error of each other in protein stability index: 0.67 ± 0.11 for the first, 0.623 ± 0.027 for the second.

REWDRRGRSHHF and REWVAGGGVVGV are within error of each other in protein stability index: 0.769 ± 0.069 for the first, 0.679 ± 0.031 for the second.

RFFSGPCCGRSP and RFGDWALGARVG are within error of each other in protein stability index: 0.6995 ± 0.002 for the first, 0.72 ± 0.032 for the second.

Going from RFGGGPCRSVGC to RFGRGAGWGLGG, the protein stability index falls from 0.7331 ± 0.0059 to 0.66 ± 0.0092.

Going from RFLLNPPLRCPP to RFPLTPSPLRAT, the protein stability index falls from 0.747 ± 0.041 to 0.6948 ± 0.0039.

First: RFPRFVVPTRTR
Second: RFRVKSYLYFCP
The protein stability index of the first is higher: 0.852 ± 0.058 for the first, 0.614 ± 0.03 for the second.

RFSDGSHLFGDR and RFSTRAVRLGPC are within error of each other in protein stability index: 0.524 ± 0.14 for the first, 0.705 ± 0.19 for the second.

Compared with RFTNHPTRQTTG, RFVCVSVCPVRV is lower in protein stability index: 0.676 ± 0.088 for the first, 0.487 ± 0.065 for the second.

RFWFWWVVRDGS and RGCAPDRIPAPV are within error of each other in protein stability index: 0.617 ± 0.08 for the first, 0.645 ± 0.023 for the second.

RGEERGGTRPAG was tested, and the protein stability index was 0.6788 ± 0.0037.
